Experimental data taken from US20250353907A1 (SHANGHAI SIMNOVA BIOTECHNOLOGY, published 2025).

Molecular target: T1, recombinant human CD19-His (human, UniProt P15391 20-291, limits assumed)
T1 construct: This is the analyte in SPR; also called human CD19 protein; CD19 antigen protein; not shown: His tag
T1 sequence (looked up): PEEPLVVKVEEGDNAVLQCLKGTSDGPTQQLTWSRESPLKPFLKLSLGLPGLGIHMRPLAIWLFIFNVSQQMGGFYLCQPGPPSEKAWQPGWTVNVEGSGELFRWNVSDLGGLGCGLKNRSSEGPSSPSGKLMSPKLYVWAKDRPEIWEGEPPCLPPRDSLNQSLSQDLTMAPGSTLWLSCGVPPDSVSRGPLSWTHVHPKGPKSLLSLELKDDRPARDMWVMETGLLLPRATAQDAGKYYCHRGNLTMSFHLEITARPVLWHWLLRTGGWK
Test: SPR (Biacore), CD19-His as analyte, 1:1 Langmuir model
Experimental: The anti-human CD19 antibody was captured using a Protein A chip (GE Healthcare; 29-127-558).
The sample and running buffer was HBS-EP+ (10 mM HEPES, 150 mM NaCl, 3 mM EDTA, 0.05% surfactant P20) (GE Healthcare; BR-1006-69). The flow cell was set at 25° C. The sample block was set at 16° C. Both were pretreated with the running buffer. In each cycle, first, the antibody to be tested was captured using the Protein A chip, and then a single concentration of CD19 antigen protein was injected. The association and dissociation processes of the antibody with the antigen protein were recorded, and finally, the chip was regenerated using Glycine pH 1.5 (GE Healthcare; BR-1003-54). The association was determined by injecting different concentrations of recombinant human CD19-His in the solution and maintaining for 240 s, wherein the flow rate was 30 μL/min, and the protein was diluted in a 1:1 dilution ratio from 200 nM (see detailed results for actual concentrations tested) to obtain 5 concentrations in total. The dissociation phase was monitored for up to 600 s and triggered by switching from the sample solution to the running buffer. The surface was regenerated by washing with 10 mM glycine solution (pH 1.5) at a flow rate of 30 μL/min for 30 s. The difference in bulk refractive index was corrected by subtracting the responses obtained from the […]. Blank injections were also subtracted (=double reference). The Langmuir 1:1 model was used to calculate the apparent KD and other kinetic parameters.

Kd: 0.0195 nM | koff: 1.8e-06 s⁻¹ | kon: 92400 M⁻¹ s⁻¹
B1: hFMC63 (humanized FMC63, hFMC63-VH1 + hFMC63-VL1) (antibody, V domains shown)
VH: EVTLKESGPVLVKPTETLTLTCTVSGFSLSDYGVSWIRQPPGKALEWLAVIWGSETTYYNSALKSRLTISKDTSKSQVVLTMTNMDPVDTATYYCAKHYYYGGSYAMDYWGQGTTVTVSS
VL: DIQMTQSPSSLSASVGDRVTITCRASQDISKYLNWYQQKPGGAVKLLIYHTSRLHSGVPSRFSGSGSGTDYTLTISSLQPEDFATYYCQQGNTLPYTFGGGTKVEIK
